One assay addresses FcεRI (Homo sapiens) (UniProt P12319). The settings on record: cited from earlier work.
Assay [1] addresses IgE. The experiment in a line: binding studies with purified scFvs (method not given; Supplementary Fig. 3c). The settings on record: read off a plot; for koff: parent: est. 2.5e-3; for kon: parent: est. 1.0e6.
For assay [2], the target named is IgE. The experiment in a line: binding kinetics (method not named in the legend or citing paragraphs; Supplementary Fig. 1e). The settings on record: parent: est. 2.8e-3 s-1; read off a plot.
Assay [3] has as its target bIgE-Fc2–4:FcεRIα-Ova complex (UniProt P12319). The experiment in a line: bead-based disruption assay. Conditions: parent: est. 20 µM; read off a plot.
Assay [4] deals with disulfide locked IgE-Fc2–4(G335C):FcεRIα(W156C) complex (UniProt P12319). As to the kind of experiment: BLI; single cycle kinetics; locked complex captured on Ni-NTA tips, coupled with EDC/NHS, nickel chelated with EDTA; anti-IgE agents in a twofold serial dilution from 1600 nM to 100 nM; 2:1 SCK binding model (Clamp-XP). (In general: In BLI a coated tip is dipped into the sample, and binding shifts an interference pattern.)

Assay [5] has as its target T1, biotinylated-IgE-Fc2–4 (human, biotin (Sulfo-NHS-LC-Biotin)).
T1 construct: IgE heavy chain constant region, human, Fc fragment with the domains Cε2, Cε3 and Cε4; the results speak of the KD for free IgE-Fc2–4; also called bIgE-Fc2–4; biotin-IgE-Fc2–4; source: labelled with Sulfo-NHS-LC-Biotin
T1 chain: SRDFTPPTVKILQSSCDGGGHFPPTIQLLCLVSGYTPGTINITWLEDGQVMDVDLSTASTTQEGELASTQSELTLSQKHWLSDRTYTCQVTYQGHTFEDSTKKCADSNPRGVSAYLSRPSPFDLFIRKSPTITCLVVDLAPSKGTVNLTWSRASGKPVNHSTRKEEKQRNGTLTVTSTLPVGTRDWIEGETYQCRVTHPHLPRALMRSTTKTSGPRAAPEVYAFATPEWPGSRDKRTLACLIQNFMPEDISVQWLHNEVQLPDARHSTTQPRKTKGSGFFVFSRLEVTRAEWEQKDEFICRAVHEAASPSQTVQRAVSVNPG
As to the kind of experiment: BLI; Octet-Red 96; biotin-labeled human IgE on streptavidin tips (~0.5 nm); serial dilution of anti-IgE agents from the lowest concentration (single cycle kinetics); 1:1 SCK model. Conditions: both partners purified.

Assay [6] addresses T1, biotinylated-IgE-Fc2–4. As to the kind of experiment: bead-based disruption assay (flow cytometry of beads); FcεRIα-Ova coupled polystyrene beads loaded with 500 nM biotin-IgE-Fc2–4 and washed; serial dilution of anti-IgE agent, 30 min, room temperature, 900 rpm; fixed; remaining bIgE-Fc2–4 stained with PE/Cy5-streptavidin; ID50 from dose response fit. Conditions: both partners purified. A general note: Flow cytometry measures light scatter and fluorescence of single cells or particles in a stream.

Assay [7] addresses T2, biotinylated IgE-Fc2–4 (Homo sapiens, UniProt P01854, biotin (Sulfo-NHS-LC-Biotin labelling)).
T2 construct: human IgE heavy chain constant region, Fc fragment with the domains Cε2 to Cε4 (IgE-Fc2–4); PDB 2Y7Q is a cited IgE-Fc2–4:FcεRIα structure and may be another construct; also called bIgE-Fc2–4; biotin-IgE-Fc2–4
The experiment in a line: BLI; Octet-Red 96; biotin-labeled human IgE immobilised on streptavidin tips (~0.5 nm); serial dilution of anti-IgE agents from the lowest concentration (single-cycle kinetics); 1:1 SCK binding model. The settings on record: both partners purified.

The target in assay [8] is Biotinylated full length recombinant IgE (human) (UniProt P01854). The experiment in a line: BLI; biotinylated full length recombinant IgE on streptavidin (SA) tips; single cycle kinetics, five 100 s associations, four 100 s dissociations and a final 600 s dissociation; analyte in two-fold serial dilutions from 50 nM to 1.56 nM; Octet Red 96; 1:1 SCK model in BiaEvaluation 3.0.

Assay [9] addresses T3, biotinylated IgE-Fc2–4 (human, UniProt P01854 106-427, biotin (Sulfo-NHS-LC-Biotin labelling)).
T3 construct: human IgE heavy chain constant region, Fc fragment with the domains Cε2 to Cε4 (IgE-Fc2–4); PDB 2Y7Q is a cited IgE-Fc2–4:FcεRIα structure and may be another construct; also called bIgE-Fc2–4; biotin-IgE-Fc2–4
The experiment in a line: BLI; Octet-Red 96; biotin-labeled human IgE immobilised on streptavidin tips (~0.5 nm); serial dilution of anti-IgE agents from the lowest concentration (single-cycle kinetics); 1:1 SCK binding model. The settings on record: both partners purified.

Changes are numbered by the printed parent chain. Names and notes keep the numbering of the source.

The values that follow come from article PMC8642555 (Nature Communications, 2021).

As a reminder, the Kd is the free concentration of one partner at which half of the binding sites on the other are occupied at equilibrium, for simple one-to-one binding. What is called koff is a measure of how fast the partners let go of each other. The kon is a measure of how fast the partners come together.

Chain of Biotinylated full length recombinant IgE (human) (P01854 whole entry, looked up): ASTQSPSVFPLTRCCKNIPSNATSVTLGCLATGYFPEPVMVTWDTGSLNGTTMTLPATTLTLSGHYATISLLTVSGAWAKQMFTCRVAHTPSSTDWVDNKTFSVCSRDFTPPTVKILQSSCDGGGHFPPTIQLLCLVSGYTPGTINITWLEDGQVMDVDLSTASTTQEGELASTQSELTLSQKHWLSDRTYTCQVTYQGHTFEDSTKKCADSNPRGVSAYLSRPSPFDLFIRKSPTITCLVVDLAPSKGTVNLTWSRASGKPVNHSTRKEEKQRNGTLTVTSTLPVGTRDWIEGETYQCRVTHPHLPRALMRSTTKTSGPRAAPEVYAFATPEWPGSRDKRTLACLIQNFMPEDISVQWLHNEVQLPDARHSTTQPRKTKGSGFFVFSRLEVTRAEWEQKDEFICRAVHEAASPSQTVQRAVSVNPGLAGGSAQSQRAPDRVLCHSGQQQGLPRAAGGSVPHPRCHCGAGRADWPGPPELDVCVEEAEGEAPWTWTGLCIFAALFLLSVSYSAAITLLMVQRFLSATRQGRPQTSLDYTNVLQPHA
Chain of FcεRI (Homo sapiens) (P12319 26-257): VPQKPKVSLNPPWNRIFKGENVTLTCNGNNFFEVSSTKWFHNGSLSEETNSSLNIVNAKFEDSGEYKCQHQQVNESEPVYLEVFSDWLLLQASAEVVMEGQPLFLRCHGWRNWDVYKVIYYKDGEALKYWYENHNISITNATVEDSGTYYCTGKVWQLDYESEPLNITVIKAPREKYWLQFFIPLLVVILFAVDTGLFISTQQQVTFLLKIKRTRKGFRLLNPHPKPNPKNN
Chain of bIgE-Fc2–4:FcεRIα-Ova complex (P12319 whole entry, looked up, tested part not stated, one chain of several): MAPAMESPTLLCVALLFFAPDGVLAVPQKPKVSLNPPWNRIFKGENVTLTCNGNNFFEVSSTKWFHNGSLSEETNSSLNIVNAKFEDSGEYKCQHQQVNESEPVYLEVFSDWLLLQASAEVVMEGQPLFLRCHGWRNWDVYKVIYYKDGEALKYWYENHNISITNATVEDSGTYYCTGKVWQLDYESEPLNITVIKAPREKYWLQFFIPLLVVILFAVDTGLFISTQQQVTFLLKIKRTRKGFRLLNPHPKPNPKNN

For the molecule IgE (from UniProt P01854), the equilibrium dissociation constant (Kd) in the assay with FcεRI (Homo sapiens) was 0.1 nM.

Turning to “omalizumab single chain variable fragment (scFv) VH:G15D; VH:I52V; VL:Y31S”, in the assay with IgE [1], the koff is 0.002 s⁻¹ and the on-rate (kon) came to 1e+06 M⁻¹ s⁻¹.

On to “omalizumab single chain variable fragment (scFv) scFvCC (cysteines for a disulfide bond at the VH:VL interface; positions not printed)”, for which the koff in the assay with IgE [2] is 0.013 s⁻¹. The other: ID50 in [3] is 40000 nM.

In assay [4], “HAE scFv (high-affinity omalizumab variant)” gave a KD of the high affinity site (2:1 model) of 2.86 nM and a KD of the low affinity site (2:1 model) of 25.8 nM.

Regarding “omalizumab single chain variable fragment (scFv) VH:G15D; VH:A41T; VH:I52V; VH:D74G; VH:R98K; VH:S100N; VH:H101N; VL:Q27K; VL:Y31S; VL:K46R”, in the assay with IgE [1], the koff was 0.0016 s⁻¹ and the kon was found to be 2e+06 M⁻¹ s⁻¹.

Consider “omalizumab single chain variable fragment (scFv) VH:S28N; VH:T53K; VH:D55S; VH:S57E; VH:N59K; VL:Q27K; VL:S28P; VL:Y31G; VL:D32E; VL:M37L”, for which, in the assay with IgE [1], the dissociation rate constant (koff) was determined as 0.00026 s⁻¹ and the kon was found to be 1.7e+06 M⁻¹ s⁻¹.

B1: clone 16 scFv (scFv, V domains shown)
VH: EVQLVESGGGLVQPDGSLRLSCAVSGYNITSGYSWNWIRQTPGKGLEWVASVTYDGSTNYNPSVKGRITISRDGSKNTFYLQMNSLRAEDTAVYYCAKGNNYFGHWHFAVWGQGTLVTVSS
VL: DIQLTQSPSSLSASVGDRVTITCRASKPVDGEGDSYLNWYQQKPGKAPKLLIYAASYLESGVPSRFSGSGSGTYFTLTISSLQPEDFATYYCQQSHEDPYTFGQGTKVEIK
notes: VH of clone 16, from a shuffled library of C02 and HAE; most clones used the C02-VH with sporadic further mutations; VL of clone 16, from a shuffled library of C02 and HAE; most clones used the HAE-VL with sporadic further mutations
For the molecule B1, in the assay with biotinylated-IgE-Fc2–4 [5], the binding result is listed as “binds”.

B2: clone 7 scFv (scFv, V domains shown)
VH: B1 VH
VL: B1 VL with P28S, G31S, E32D, L37M, K46R, Y74H
notes: VH as the VH of C02; VL as the VL of C02 with D74H in the E-strand; Identical to C02 beyond D74H
As to B2, the “fold increase of ID50 against C02” value in the assay with biotinylated-IgE-Fc2–4 [6] is 5 fold.

B3: clone A4 scFv (scFv, V domains shown)
VH: B1 VH
VL: B1 VL with Y74G
notes: VH of clone A4, from a shuffled library of C02 and HAE; most clones used the C02-VH with sporadic further mutations; VL of clone A4, from a shuffled library of C02 and HAE; most clones used the HAE-VL with sporadic further mutations
Take B3: in the assay with biotinylated-IgE-Fc2–4 [5], the binding result is listed as “binds”.

B4: clone 7 scFv (C02 with VL D74H) (scFv, V domains shown)
VH: B1 VH
VL: B1 VL with P28S, G31S, E32D, L37M, K46R, Y74H
notes: as the scFv of C02 (Sm8), identical to it beyond D74H in the E-strand of the VL domain; cryo-EM structure with the locked IgE-Fc2–4:FcεRIα complex solved here; D74 counts on the VL domain
In the assay with biotinylated IgE-Fc2–4 [7], B4 gave a Kd of 0.581 nM, an off-rate (koff) of 0.00104 s⁻¹ and an on-rate constant (kon) of 1.79e+06 M⁻¹ s⁻¹.

B5: clone A4 scFv (shuffled C02/HAE omalizumab variant with VL D74G) (scFv, V domains shown)
VH: B1 VH
VL: B1 VL with Y74G
notes: from a shuffled library of C02 (Sm8) and HAE (Sm7); D74G in the E-strand of VL; D74 counts on the VL domain
Take B5: in the assay with biotinylated IgE-Fc2–4 [7], the Kd was found to be 0.377 nM, the koff came out at 0.000565 s⁻¹ and the on-rate (kon) was found to be 1.5e+06 M⁻¹ s⁻¹.

B6: clone 16 scFv (shuffled C02/HAE omalizumab variant with VL D74Y) (scFv, V domains shown)
VH: B1 VH
VL: B1 VL
notes: from a shuffled library of C02 (Sm8) and HAE (Sm7); D74Y in the E-strand of VL; D74 counts on the VL domain
Turning to B6, in the assay with biotinylated IgE-Fc2–4 [7], binding was put at a Kd of 0.308 nM, the koff worked out at 0.000448 s⁻¹ and the kon was 1.45e+06 M⁻¹ s⁻¹.

B7: DARPin E2_79 (designed binder)
chain: MRGSHHHHHHGSDLGKKLLEAARAGQDDEVRILTANGADVNANDYWGHTPLHLAAMLGHLEIVEVLLKNGADVNATGNTGRTPLHLAAWADHLEIVEVLLKHGADVNAQDKFGKTAFDISIDNGNEDLAEILQKL
Regarding B7, in assay [8], the equilibrium dissociation constant (Kd) is 1.18 nM, the koff worked out at 0.00212 s⁻¹ and the kon came to 1.79e+06 M⁻¹ s⁻¹. For the same molecule, in the assay with biotinylated IgE-Fc2–4 [9], the Kd stood at 1.18 nM, the koff worked out at 0.00212 s⁻¹ and the on-rate constant (kon) is 1.79e+06 M⁻¹ s⁻¹.
